# Experimental data from IntAct's records for PubMed 35512704.
# B1: Speckle-type POZ protein (Homo sapiens), O43791 (parent)
# chain: MSRVPSPPPPAEMSSGPVAESWCYTQIKVVKFSYMWTINNFSFCREEMGEVIKSSTFSSGANDKLKWCLRVNPKGLDEESKDYLSLYLLLVSCPKSEVRAKFKFSILNAKGEETKAMESQRAYRFVQGKDWGFKKFIRRDFLLDEANGLLPDDKLTLFCEVSVVQDSVNISGQNTMNMVKVPECRLADELGGLWENSRFTDCCLCVAGQEFQAHKAILAARSPVFSAMFEHEMEESKKNRVEINDVEPEVFKEMMCFIYTGKAPNLDKMADDLLAAADKYALERLKVMCEDALCSNLSVENAAEILILADLHSADQLKTQAVDFINYHASDVLETSGWKSMVVSHPHLVAEAYRSLASAQCPFLGPPRKRLKQS
# partner: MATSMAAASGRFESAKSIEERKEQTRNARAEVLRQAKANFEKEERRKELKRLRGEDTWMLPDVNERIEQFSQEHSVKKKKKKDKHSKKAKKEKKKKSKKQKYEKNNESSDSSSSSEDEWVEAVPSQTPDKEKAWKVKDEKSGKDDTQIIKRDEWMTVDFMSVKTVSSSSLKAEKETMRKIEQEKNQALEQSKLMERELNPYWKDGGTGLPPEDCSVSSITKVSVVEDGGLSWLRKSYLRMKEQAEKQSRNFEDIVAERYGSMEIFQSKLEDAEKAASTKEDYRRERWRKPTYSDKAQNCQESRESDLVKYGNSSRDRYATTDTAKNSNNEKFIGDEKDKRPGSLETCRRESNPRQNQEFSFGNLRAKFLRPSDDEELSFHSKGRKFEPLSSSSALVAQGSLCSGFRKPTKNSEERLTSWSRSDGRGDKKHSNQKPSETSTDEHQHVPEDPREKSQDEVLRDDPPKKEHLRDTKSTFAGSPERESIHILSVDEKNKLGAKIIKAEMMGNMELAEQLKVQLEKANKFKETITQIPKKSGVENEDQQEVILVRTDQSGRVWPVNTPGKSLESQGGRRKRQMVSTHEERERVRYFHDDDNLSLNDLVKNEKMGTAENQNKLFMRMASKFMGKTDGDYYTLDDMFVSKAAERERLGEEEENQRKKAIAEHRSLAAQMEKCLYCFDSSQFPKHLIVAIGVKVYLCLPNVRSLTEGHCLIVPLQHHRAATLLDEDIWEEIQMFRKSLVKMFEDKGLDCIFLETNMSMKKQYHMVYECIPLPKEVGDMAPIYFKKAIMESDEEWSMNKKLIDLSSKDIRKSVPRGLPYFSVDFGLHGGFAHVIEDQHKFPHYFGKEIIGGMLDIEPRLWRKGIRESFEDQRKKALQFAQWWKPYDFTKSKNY
# B2: Speckle-type POZ protein (Homo sapiens), O43791 (parent)
# chain: B1 chain
# partner: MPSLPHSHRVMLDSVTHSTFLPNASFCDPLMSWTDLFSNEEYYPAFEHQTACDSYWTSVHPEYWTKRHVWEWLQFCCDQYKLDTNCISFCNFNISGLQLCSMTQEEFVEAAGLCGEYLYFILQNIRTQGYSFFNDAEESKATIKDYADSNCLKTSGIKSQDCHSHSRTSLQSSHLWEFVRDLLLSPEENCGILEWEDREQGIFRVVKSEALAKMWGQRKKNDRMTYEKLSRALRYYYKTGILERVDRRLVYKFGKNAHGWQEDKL
# B3: Speckle-type POZ protein (Homo sapiens), O43791 (parent)
# chain: B1 chain
# partner: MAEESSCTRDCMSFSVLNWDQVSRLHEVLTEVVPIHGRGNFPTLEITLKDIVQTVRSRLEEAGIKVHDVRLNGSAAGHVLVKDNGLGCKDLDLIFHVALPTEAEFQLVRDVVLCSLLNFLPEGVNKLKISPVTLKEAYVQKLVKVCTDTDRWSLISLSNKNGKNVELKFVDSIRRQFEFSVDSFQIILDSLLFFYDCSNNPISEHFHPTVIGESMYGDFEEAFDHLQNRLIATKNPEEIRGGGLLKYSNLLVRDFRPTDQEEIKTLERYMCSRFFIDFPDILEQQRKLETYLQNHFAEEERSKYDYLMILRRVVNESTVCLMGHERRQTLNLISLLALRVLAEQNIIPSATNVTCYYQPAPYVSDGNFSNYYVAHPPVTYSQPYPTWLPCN
# B4: Speckle-type POZ protein (Homo sapiens), O43791 (parent)
# chain: B1 chain
# partner: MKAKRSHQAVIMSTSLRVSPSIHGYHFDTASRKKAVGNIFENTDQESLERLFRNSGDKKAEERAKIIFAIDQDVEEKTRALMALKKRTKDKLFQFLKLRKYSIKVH
# B5: Speckle-type POZ protein (Homo sapiens), O43791 (parent)
# chain: B1 chain
# partner: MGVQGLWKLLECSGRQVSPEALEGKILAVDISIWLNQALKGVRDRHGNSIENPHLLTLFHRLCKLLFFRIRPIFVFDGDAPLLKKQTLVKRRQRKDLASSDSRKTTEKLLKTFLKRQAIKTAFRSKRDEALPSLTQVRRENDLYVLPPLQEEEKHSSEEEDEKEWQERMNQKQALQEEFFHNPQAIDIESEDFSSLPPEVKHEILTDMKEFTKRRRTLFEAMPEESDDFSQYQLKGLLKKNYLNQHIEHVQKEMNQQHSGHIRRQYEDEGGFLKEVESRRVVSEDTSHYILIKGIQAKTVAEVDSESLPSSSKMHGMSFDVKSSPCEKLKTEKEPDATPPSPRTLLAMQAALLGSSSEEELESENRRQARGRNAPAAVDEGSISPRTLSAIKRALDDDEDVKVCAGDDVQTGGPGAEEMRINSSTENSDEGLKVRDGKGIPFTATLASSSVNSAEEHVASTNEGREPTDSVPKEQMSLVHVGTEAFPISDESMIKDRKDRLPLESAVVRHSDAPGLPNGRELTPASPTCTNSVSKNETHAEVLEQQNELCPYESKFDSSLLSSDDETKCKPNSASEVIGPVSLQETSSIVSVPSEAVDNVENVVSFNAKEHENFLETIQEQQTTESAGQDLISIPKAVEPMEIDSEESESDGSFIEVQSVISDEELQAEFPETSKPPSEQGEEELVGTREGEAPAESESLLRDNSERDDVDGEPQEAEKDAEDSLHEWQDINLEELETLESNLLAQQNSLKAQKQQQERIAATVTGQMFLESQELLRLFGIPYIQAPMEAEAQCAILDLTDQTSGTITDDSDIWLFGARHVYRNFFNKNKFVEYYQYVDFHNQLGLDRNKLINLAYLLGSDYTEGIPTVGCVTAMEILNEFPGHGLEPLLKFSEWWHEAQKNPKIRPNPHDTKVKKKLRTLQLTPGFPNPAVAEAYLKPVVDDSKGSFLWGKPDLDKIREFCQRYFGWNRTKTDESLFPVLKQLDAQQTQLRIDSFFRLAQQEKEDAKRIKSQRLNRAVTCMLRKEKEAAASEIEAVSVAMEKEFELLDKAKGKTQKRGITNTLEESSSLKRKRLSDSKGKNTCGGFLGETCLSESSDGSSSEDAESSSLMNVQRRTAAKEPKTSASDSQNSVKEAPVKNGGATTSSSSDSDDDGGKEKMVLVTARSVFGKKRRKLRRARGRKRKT
# B6: Speckle-type POZ protein (Homo sapiens), O43791 (parent)
# chain: B1 chain
# partner: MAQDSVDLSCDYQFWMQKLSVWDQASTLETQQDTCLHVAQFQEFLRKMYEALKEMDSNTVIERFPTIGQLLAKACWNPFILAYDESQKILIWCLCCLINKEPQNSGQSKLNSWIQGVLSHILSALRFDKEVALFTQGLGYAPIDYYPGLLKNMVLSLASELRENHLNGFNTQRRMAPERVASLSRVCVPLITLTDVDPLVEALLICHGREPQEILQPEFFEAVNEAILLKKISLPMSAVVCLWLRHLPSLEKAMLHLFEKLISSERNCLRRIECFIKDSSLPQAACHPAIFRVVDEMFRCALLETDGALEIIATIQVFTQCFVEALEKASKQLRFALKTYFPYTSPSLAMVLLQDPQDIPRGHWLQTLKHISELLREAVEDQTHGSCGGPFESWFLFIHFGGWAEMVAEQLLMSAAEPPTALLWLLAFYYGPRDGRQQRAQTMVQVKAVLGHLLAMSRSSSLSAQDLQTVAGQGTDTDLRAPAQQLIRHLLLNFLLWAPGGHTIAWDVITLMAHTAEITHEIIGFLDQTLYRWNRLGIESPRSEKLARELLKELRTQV
# B7: Speckle-type POZ protein (Homo sapiens), O43791 (parent)
# chain: B1 chain
# partner: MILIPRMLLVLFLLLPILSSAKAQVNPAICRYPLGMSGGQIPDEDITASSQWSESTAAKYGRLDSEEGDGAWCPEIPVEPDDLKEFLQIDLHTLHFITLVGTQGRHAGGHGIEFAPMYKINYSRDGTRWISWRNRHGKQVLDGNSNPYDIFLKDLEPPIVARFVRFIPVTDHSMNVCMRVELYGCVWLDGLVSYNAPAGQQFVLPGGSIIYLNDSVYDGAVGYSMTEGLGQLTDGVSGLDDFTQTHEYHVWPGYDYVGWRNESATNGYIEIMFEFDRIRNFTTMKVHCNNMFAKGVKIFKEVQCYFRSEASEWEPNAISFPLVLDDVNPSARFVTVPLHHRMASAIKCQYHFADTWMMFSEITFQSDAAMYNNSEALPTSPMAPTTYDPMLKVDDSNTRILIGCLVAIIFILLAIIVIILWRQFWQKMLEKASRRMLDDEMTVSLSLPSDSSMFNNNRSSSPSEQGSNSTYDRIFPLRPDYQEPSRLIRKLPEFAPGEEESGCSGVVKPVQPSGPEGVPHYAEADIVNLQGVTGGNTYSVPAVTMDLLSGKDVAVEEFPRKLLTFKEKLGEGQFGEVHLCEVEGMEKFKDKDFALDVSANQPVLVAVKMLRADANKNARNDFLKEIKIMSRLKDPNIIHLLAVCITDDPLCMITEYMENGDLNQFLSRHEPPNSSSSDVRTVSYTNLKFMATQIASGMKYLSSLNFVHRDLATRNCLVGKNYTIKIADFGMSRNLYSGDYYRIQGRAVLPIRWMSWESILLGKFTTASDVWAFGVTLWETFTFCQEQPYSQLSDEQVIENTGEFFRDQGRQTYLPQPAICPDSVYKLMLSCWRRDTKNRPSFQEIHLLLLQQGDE
# Variants of: B1
# Conditions: with CWF19L2, Q2TBE0
row,effect of a mutation on the interaction,Variant
1,with no effect,Y87C

# Variants of: B2
# Conditions: with elf5_human ELF5, Q9UKW6
row,effect of a mutation on the interaction,Variant
1,with no effect,Y87C

# Variants of: B2
# Conditions: with elf5_human ELF5, Q9UKW6
# Remark: another data set of the same source
row,effect of a mutation on the interaction,Variant
1,with no effect,F102C

# Variants of: B2
# Conditions: with elf5_human ELF5, Q9UKW6
# Remark: another data set of the same source
row,effect of a mutation on the interaction,Variant
1,with no effect,F133V

# Variants of: B2
# Conditions: with elf5_human ELF5, Q9UKW6
# Remark: another data set of the same source
row,effect of a mutation on the interaction,Variant
1,with no effect,F133L

# Variants of: B3
# Conditions: with tet5c_human TENT5C
row,effect of a mutation on the interaction,Variant
1,with no effect,Y87C

# Variants of: B3
# Conditions: with tet5c_human TENT5C
# Remark: another data set of the same source
row,effect of a mutation on the interaction,Variant
1,with no effect,F102C

# Variants of: B3
# Conditions: with tet5c_human TENT5C
# Remark: another data set of the same source
row,effect of a mutation on the interaction,Variant
1,with no effect,F133V

# Variants of: B3
# Conditions: with tet5c_human TENT5C
# Remark: another data set of the same source
row,effect of a mutation on the interaction,Variant
1,with no effect,F133L

# Variants of: B4
# Conditions: with tcim_human TCIM
row,effect of a mutation on the interaction,Variant
1,with no effect,Y87C

# Variants of: B4
# Conditions: with tcim_human TCIM
# Remark: another data set of the same source
row,effect of a mutation on the interaction,Variant
1,with no effect,F102C

# Variants of: B4
# Conditions: with tcim_human TCIM
# Remark: another data set of the same source
row,effect of a mutation on the interaction,Variant
1,with no effect,F133V

# Variants of: B4
# Conditions: with tcim_human TCIM
# Remark: another data set of the same source
row,effect of a mutation on the interaction,Variant
1,with no effect,F133L

# Variants of: B5
# Conditions: with ercc5_human ERCC5, P28715
row,effect of a mutation on the interaction,Variant
1,with no effect,Y87C

# Variants of: B5
# Conditions: with ercc5_human ERCC5, P28715
# Remark: another data set of the same source
row,effect of a mutation on the interaction,Variant
1,with no effect,F133V

# Variants of: B5
# Conditions: with ercc5_human ERCC5, P28715
# Remark: another data set of the same source
row,effect of a mutation on the interaction,Variant
1,with no effect,F133L

# Variants of: B5
# Conditions: with ercc5_human ERCC5, P28715
# Remark: another data set of the same source
row,effect of a mutation on the interaction,Variant
1,with no effect,F102C

# Variants of: B6
# Conditions: with fancc_human FANCC
row,effect of a mutation on the interaction,Variant
1,with no effect,Y87C

# Variants of: B6
# Conditions: with fancc_human FANCC
# Remark: another data set of the same source
row,effect of a mutation on the interaction,Variant
1,with no effect,F102C

# Variants of: B6
# Conditions: with fancc_human FANCC
# Remark: another data set of the same source
row,effect of a mutation on the interaction,Variant
1,with no effect,F133L

# Variants of: B6
# Conditions: with fancc_human FANCC
# Remark: another data set of the same source
row,effect of a mutation on the interaction,Variant
1,with no effect,F133V

# Variants of: B7
# Conditions: with ddr2_human DDR2, Q16832
row,effect of a mutation on the interaction,Variant
1,with no effect,Y87C

# Variants of: B7
# Conditions: with ddr2_human DDR2, Q16832
# Remark: another data set of the same source
row,effect of a mutation on the interaction,Variant
1,with no effect,F102C
